Source: PMC5209314, “Purification and characterization of a novel glutamate dehydrogenase from Geotrichum candidum with higher alcohol and amino acid activity” (AMB Express, 2017)

Tests used:
purified protein [1] = substrate: NC(=O)C1=CN([C@@H]2O[C@H](COP(=O)(O)OP(=O)(O)OC[C@H]3O[C@@H](n4cnc5c(N)ncnc54)[C@H](OP(=O)(O)O)[C@@H]3O)[C@@H](O)[C@H]2O)C=CC1; assay: purified protein; assay type: biochemical, Geotrichum candidum; conditions: pH 4.0, 30 °C, printed unit doubtful: tested 0.01-0.1 mmol/L and same column is mM in abstract, so probably mmol/L, varied: cofactor
purified protein [2] = substrate: O=C(O)CCC(=O)C(=O)O; assay: purified protein; assay type: biochemical, Geotrichum candidum; conditions: NADPH, NH4+, pH 4.0, 30 °C, Table 2 header prints μmol/L, abstract mM
purified protein [3] = substrate: N[C@@H](CCC(=O)O)C(=O)O; assay: purified protein; assay type: biochemical, Geotrichum candidum; conditions: NADP+, pH 4.0, 30 °C, Table 2 header prints μmol/L, abstract mM, competitive with hexanol, b65 prints other Michaelis constants (61.02 and 13.43 mM, both called glutamate)
[4] = substrate: CC(C)CCO; assay: GC of substrate decrease, Lineweaver-Burk; assay type: biochemical, Geotrichum candidum; conditions: NADP+, pH 4.0, 30 °C, Table 2 header prints mol/L, abstract mM
[5] = substrate: CCCCCCO; assay: GC of substrate decrease, Lineweaver-Burk; assay type: biochemical, Geotrichum candidum; conditions: NADP+, pH 4.0, 30 °C, Table 2 header prints mol/L, abstract mM
purified protein [6] = substrate: N; assay: purified protein; conditions: pH 4.0, 30 °C, printed unit doubtful: tested 5-50 mmol/L and same column is mM in abstract, so probably mmol/L

B1: glutamate dehydrogenase (GDH) from Geotrichum candidum S12 (Geotrichum candidum) (protein)
chain: MVQPSEPEFEQAYNELLSTLKDSTLFEKRPELEKVIPIVSIPERVLQFRVVWEDDNGVAQVNRGYRVQFNSALGPYKGGLRFHPTVNLSILKFLGYEQIFKNALTGLNMGGGKGGSDFDPKGKSDSEIRRFCVAFMGELHRHIGADTDVPAGDINVGGREIGYLFGAYKKFKNTWEGVLTGKGLTWGGSLIRPEATGYGVVYYVEKMIEYATQGKESFAGKTVAISGSGNVAQYAALKVIELGGTVVSLSDSKGAFIATTAEGFTPAEIAEIADIKVSHAQLSTLADKFASKFKYLEGARPWVHVKADVALPCATQNEVSGEEAEALVANGTKFIAEGSNMGSTQEAIDVFEAERLKNPQGIWYAPGKAANAGGVAVSGLEMAQNSQRGNWSTEEVDQRLKEIMVNIFNTSVSTAVEYSSEKGDSLPSLVKGANIAGFVKVADAMHDHGDFW
notes: identified by PMF similarity to Yaliof17820p (Yarrowia homologue)
Km (purified protein [1]): 0.00013 mM | Km (purified protein [2]): 4.01 mM | Km (purified protein [3]): 41.74 mM | Km [4]: 19.37 mM | Km [5]: 20.37 mM | Km (purified protein [6]): 0.00535 mM
